B1: His6-LEDGF_(345–530) (domain or fragment, UniProt O75475 345-530, looked up)
chain: ETSMDSRLQRIHAEIKNSLKIDNLDVNRCIEALDELASLQVTMQQAQKHTEMITTLKKIRRFKVSQVIMEKSTMLYNKFKNMFLVGEGDSVITQVLNKSLAEQRQHEEANKTKDQGKKGPNKKLEKEQTGSKTLNGGSDAQDGNQPQHNGESNEDSKDNHEASTKKKPSSEERETEISLKDSTLDN
notes: the plasmid has a TEV site after the His tag, a cleavage is not reported; source: E. coli BL21(DE3)pLysS, purified (Ni-NTA, heparin); not shown: His6, N-terminal, kept
B2: Flag-LEDGF/p75 E451R-E452R (natural protein)
chain: not shown
notes: LEDGF/p75 with two reverse-charge mutations in the α6-helix; source: E. coli BL21(DE3)pLysS, purified (heparin column, Superdex 75); not shown: Flag, N-terminal, kept

Legend:
Settings in all cases: both partners purified
Flag-LEDGF/p75 WT [1] = target: T1, Flag-LEDGF/p75 WT (UniProt O75475 1-530); experiment: AlphaScreen or HTRF; competition: 150 nM GST-LEDGF/p75 and 150 nM Flag-LEDGF/p75 outcompeted by increasing concentrations of a third LEDGF construct; apparent IC50
T1 construct: LEDGF/p75, aa 1-530, from the pCp-NAT-3xFlag-LEDGF WT construct; also called Flag-tagged LEDGF/p75; Flag-LEDGF_(1–530); source: E. coli BL21(DE3)pLysS, purified (heparin column, Superdex 75); not shown: 3xFlag, N-terminal, kept

His6-LEDGF_(345–530) = target: B1; experiment: AlphaScreen or HTRF; direct titration or cross-titration of two differently tagged proteins at nanomolar concentrations (one partner fixed at 100-350 nM); no nuclease; protein batches held DNA at 2 µg/mL or lower
Flag-LEDGF_(1–426) = target: T2, Flag-LEDGF_(1–426) (UniProt O75475 1-426); experiment: as above
T2 construct: LEDGF/p75 residues 1-426, truncation missing the complete C-term including the α6-helix; source: E. coli BL21(DE3)pLysS, purified (heparin column, Superdex 75); not shown: Flag, N-terminal, kept

Flag-LEDGF/p75 WT [2] = target: T1, Flag-LEDGF/p75 WT; experiment: as above
GST-LEDGF/p75 = target: T3, GST-LEDGF/p75 (UniProt O75475 1-530); experiment: as above
T3 construct: LEDGF/p75 (lens epithelium-derived growth factor p75), aa 1-530, expressed from pGEX-p75; also called GST-tagged LEDGF/p75; full-length GST-tagged LEDGF/p75; source: E. coli BL21(DE3)pLysS, purified as described before [24]; not shown: GST, N-terminal, kept

[3] = target: B2; experiment: as above

Binder	IC50 (Flag-LEDGF/p75 WT [1]) [nM]	binding result (Flag-LEDGF_(1–426))	binding result (Flag-LEDGF/p75 WT [2])	also measured
His6-LEDGF/p52 (natural protein, lacks the IBD and C-term; also called His6-tagged LEDGF/p52; source: E. coli BL21(DE3)pLysS, purified (Ni-NTA, heparin); not shown: His6, N-terminal, kept) not shown	12.2			
MBP-LEDGF_(325–426) (domain or fragment, UniProt O75475 325-426, looked up, source: E. coli BL21(DE3)pLysS, purified (amylose resin); not shown: MBP, N-terminal, kept) EQQNKDEGKKPEVKKVEKKRETSMDSRLQRIHAEIKNSLKIDNLDVNRCIEALDELASLQVTMQQAQKHTEMITTLKKIRRFKVSQVIMEKSTMLYNKFKNM				binding result (His6-LEDGF_(345–530)): binds
B1	222			fold stronger binding than the mutants E451A and N454A-K455A (Flag-LEDGF_(1–426)): ~2 fold
His6-LEDGF_(345–530) E451A (domain or fragment, UniProt O75475 345-530, looked up, source: E. coli BL21(DE3)pLysS, purified (Ni-NTA, heparin); not shown: His6, N-terminal, kept) ETSMDSRLQRIHAEIKNSLKIDNLDVNRCIEALDELASLQVTMQQAQKHTEMITTLKKIRRFKVSQVIMEKSTMLYNKFKNMFLVGEGDSVITQVLNKSLAEQRQHAEANKTKDQGKKGPNKKLEKEQTGSKTLNGGSDAQDGNQPQHNGESNEDSKDNHEASTKKKPSSEERETEISLKDSTLDN		binds	binds	
His6-LEDGF_(345–530) N454A-K455A (domain or fragment, UniProt O75475 345-530, looked up, source: E. coli BL21(DE3)pLysS, purified (Ni-NTA, heparin); not shown: His6, N-terminal, kept) ETSMDSRLQRIHAEIKNSLKIDNLDVNRCIEALDELASLQVTMQQAQKHTEMITTLKKIRRFKVSQVIMEKSTMLYNKFKNMFLVGEGDSVITQVLNKSLAEQRQHEEAAATKDQGKKGPNKKLEKEQTGSKTLNGGSDAQDGNQPQHNGESNEDSKDNHEASTKKKPSSEERETEISLKDSTLDN		binds	binds	
His6-LEDGF_(1–426) (domain or fragment, LEDGF/p75 residues 1-426 (lacks the C-term with the α6-helix); elsewhere LEDGF1-426 is Flag-tagged; source: E. coli BL21(DE3)pLysS, purified (Ni-NTA, heparin); not shown: His6, N-terminal, kept) not shown	65.5			
B2				binding result (GST-LEDGF/p75): binds
MLL1_(1–160)-GST (domain or fragment, UniProt Q03164 1-160, looked up, MLL1 residues 1-160; also called MLL1_(1–160) fragment; not shown: GST, C-terminal, kept) MAHSCRWRFPARPGTTGGGGGGGRRGLGGAPRQRVPALLLPPGPPVGGGGPGAPPSPPAVAAAAAAAGSSGAGVPGGAAAASAASSSSASSSSSSSSSASSGPALLRVGPGFDAALQVSAAIGTNLRRFRAVFGESGGGGGSGEDEQFLGFGSDEEVRVR		binds	binds	binding result [3]: binds
